In publication PMC8346945, “Evaluation of efficacy- versus affinity-driven agonism with biased GLP-1R ligands P5 and exendin-F1” (Biochemical Pharmacology, 2021) one finds cAMP production in HEK293-SNAP-GLP-1R cells, 30-min stimulation, pEC50 data, which are given here for 1 substance.

This test concerns the target SNAP-GLP-1R (glucagon-like peptide-1 receptor with an N-terminal SNAP-tag), stably expressed in HEK293 cells (UniProt P43220).
Sequence of UniProt P43220 (P43220 24-463): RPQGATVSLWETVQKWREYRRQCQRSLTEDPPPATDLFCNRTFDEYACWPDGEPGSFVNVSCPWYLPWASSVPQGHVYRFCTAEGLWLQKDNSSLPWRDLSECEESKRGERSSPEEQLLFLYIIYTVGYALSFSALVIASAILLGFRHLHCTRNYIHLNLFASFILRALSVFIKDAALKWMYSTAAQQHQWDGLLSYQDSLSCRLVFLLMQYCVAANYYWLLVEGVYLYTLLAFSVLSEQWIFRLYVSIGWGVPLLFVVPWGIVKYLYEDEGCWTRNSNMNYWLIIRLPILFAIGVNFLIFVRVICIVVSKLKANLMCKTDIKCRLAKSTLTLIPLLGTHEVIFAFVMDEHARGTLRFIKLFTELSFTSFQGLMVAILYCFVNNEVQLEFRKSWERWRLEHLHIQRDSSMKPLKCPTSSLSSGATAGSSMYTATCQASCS

On to “Exendin-4 (from UniProt P26349 48-87) (peptide)”, for which the cAMP production in HEK293-SNAP-GLP-1R cells, 30-min stimulation, pEC50 was 9.9 pEC50 (M).
